These results are taken from paper PMC10107152.

Where a chain is given by its changes, count along the chain named. Numbers in names are those of the source.

The Km is the substrate concentration at which the rate is half of its maximum. What is called kcat is the number of substrate molecules converted per active site and unit of time at saturation. Usually kcat/Km stands for the turnover number divided by the Michaelis constant.

B1: SPS (styrylpyrone synthase; WT-SPS) (Piper methysticum) (protein)
chain: MSKTVEDRAAQRAKGPATVLAIGTATPANVVYQTDYPDYYFRVTKSEHMTKLKNKFQRMCDRSTIKKRYMVLTEELLEKNLSLCTYMEPSLDARQDILVPEVPKLGKEAADEAIAEWGRPKSEITHLIFCTTCGVDMPGADYQLTKLLGLRSSVRRTMLYQQGCFGGGTVLRLAKDLAENNAGARVLVVCSEITTAVNFRGPSDTHLDLLVGLALFGDGAAAVIVGADPDPTLERPLFQIVSGAQTILPDSEGAINGHLREVGLTIRLLKDVPGLVSMNIEKCLMEAFAPMGIHDWNSIFWIAHPGGPTILDQVEAKLGLKEEKLKSTRAVLREYGNMSSACVLFILDEVRKRSMEEGKTTTGEGFDWGVLFGFGPGFTVETVVLHSMPIPKADEGR
B2: 2PS (2-pyrone synthase; WT-2PS) (Gerbera hybrid cultivar) (protein)
chain: MGSYSSDDVEVIREAGRAQGLATILAIGTATPPNCVAQADYADYYFRVTKSEHMVDLKEKFKRICEKTAIKKRYLALTEDYLQENPTMCEFMAPSLNARQDLVVTGVPMLGKEAAVKAIDEWGLPKSKITHLIFCTTAGVDMPGADYQLVKLLGLSPSVKRYMLYQQGCAAGGTVLRLAKDLAENNKGSRVLIVCSEITAILFHGPNENHLDSLVAQALFGDGAAALIVGSGPHLAVERPIFEIVSTDQTILPDTEKAMKLHLREGGLTFQLHRDVPLMVAKNIENAAEKALSPLGITDWNSVFWMVHPGGRAILDQVERKLNLKEDKLRASRHVLSEYGNLISACVLFIIDEVRKRSMAEGKSTTGEGLDCGVLFGFGPGMTVETVVLRSVRVTAAVANGN
B3: 2PS (2-pyrone synthase; WT-2PS) (Gerbera hybrid cultivar; I201V/I343S/L202T/L261V) (protein)
chain: B2 chain with I201V, L202T, L261V, I343S
B4: 2PS (2-pyrone synthase; WT-2PS) (Gerbera hybrid cultivar; I201V/I343S/L202T/L261G) (protein)
chain: B2 chain with I201V, L202T, L261G, I343S
B5: 2PS (2-pyrone synthase; WT-2PS) (Gerbera hybrid cultivar; I201V/I343S/L202T/L261A) (protein)
chain: B2 chain with I201V, L202T, L261A, I343S
B6: 2PS (2-pyrone synthase; WT-2PS) (Gerbera hybrid cultivar; I201V/I343S/L202T) (protein)
chain: B2 chain with I201V, L202T, I343S

Substrate in this data set: CC(C)(COP(=O)(O)OP(=O)(O)OC[C@H]1O[C@@H](n2cnc3c(N)ncnc32)[C@H](O)[C@@H]1OP(=O)(O)O)[C@@H](O)C(=O)NCCC(=O)NCCSC(=O)/C=C/c1ccccc1
The data set is described as follows: purified protein. The following applies: varied cinnamoyl-CoA; malonyl-CoA as extender.
For the protein B1, the Km came out at 3.7 ± 0.5 µM, the kcat is 0.00287 ± 0.0001 s⁻¹ and the kcat/Km came to 770 ± 30 M⁻¹ s⁻¹.
Turning to B2, the Michaelis constant (Km) is 1.6 ± 0.5 µM, the turnover number (kcat) worked out at 0.000533 ± 5e-05 s⁻¹ and the kcat/Km turned out to be 340 ± 60 M⁻¹ s⁻¹.
For B3, in that order: 2.1 ± 0.5 µM, 0.00225 ± 0.000167 s⁻¹ and 1070 ± 270 M⁻¹ s⁻¹.
For B4, in that order: 7.1 ± 1.1 µM, 0.165 ± 0.01 s⁻¹ and 23000 ± 4000 M⁻¹ s⁻¹.
B5: the Michaelis constant (Km) is 4.2 ± 0.8 µM, the kcat came out at 0.0312 ± 0.00233 s⁻¹ and the kcat/Km worked out at 7400 ± 1500 M⁻¹ s⁻¹.
For B6, in that order: 1.4 ± 0.3 µM, 0.000767 ± 3.33e-05 s⁻¹ and 568 ± 116 M⁻¹ s⁻¹.
